Data on 68 sequences can be found in the domain aggregation screens of Martell et al. (2025).

The data set is described as follows: soluble fraction after stress (log2 fold change); higher = more stays soluble; pooled small domains, quantitative proteomics. Particulars: stress: 50 degC. The essentials: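 Custom libraries of small protein domains were pooled and measured in a high-throughput format, with quantitative proteomics as the read-out. Each library was stressed at 50°C. The value is the log2 fold change in the amount of each protein that stays soluble after stress, used as a measure of aggregation propensity; higher values mean more of the protein stays soluble.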

On to “HMGLNELQVKLNEAMQRLSLKHRTVVVMHDIEGIPHDEIAKIVGVSVGTIRSRLFYARRQLQADLGEY”, for which the “soluble fraction (log2)” value was -2.57.

For “HMGTEITEQRAKEIALENAKVAESDVTAMRVKKEMDDGVWRYDVEFYVQNKEYDYEINAMDGTILSVDYD”, the “soluble fraction (log2)” value was -0.04.

Regarding “HMGVTDSSYNVLRRQILEMLSVQQRTPADLARLIEADKEEIAAVIRFLLDKGEIQMEDGMLQTK”, the “soluble fraction (log2)” value was determined as 0.0683.

For the sequence “HMKERVSWDERLERFAKHITENESLPYPSSKEYAWFEENKALYDAGELEPVRAQSFAFLLKIMRRMNL”, the “soluble fraction (log2)” value is -0.491.

As to “HMAGLKERLFYFIEYKGLTVQSFEKTVGLSNGAVSKMGDNTRRSTIDKISNFFGDLNKNWLLTGEGEMLI”, the “soluble fraction (log2)” value was -0.99.

On to “HMGDADDLTRIKGIGPKLSKTLNELGIYHFRQIAGWQSDEADWVDDYLSFKGRVMREQWIEQAQKFAS”, for which the “soluble fraction (log2)” value was -0.392.

As for “HMSVISVETAKSKALAHAGLTASKVTFIENKLEWDDGRQVYDIEFYTSDYKEYDYTIDAVSGQVLEFDY”, the “soluble fraction (log2)” value is -1.13.

With “HMAEVPDLRNKTQQEAEAELTNHNLKLGNVTEEYSATVEAGRVISQSTSYGTKVLEGSSVDITISKGPEPT”, the “soluble fraction (log2)” value was -0.0123.

With “HMNNLNDIIEIIRIYAKNYARNNPSWNHSELINRIRDKALGEAEDYNIRLSEEDLALITELSLRGL”, the “soluble fraction (log2)” value is -0.474.

As to “HMSLAATLSPREIDTVRLIAVGSSNKEIARQLGIAETTVKIHVQHILRKLNLTSRVQVAVFANAEGII”, the “soluble fraction (log2)” value is -0.801.

On to “HMDPSWVPVFNNLRDAILSHQLLPGTRLAEDELSNIYGLGRTVIRSALGALTHEGLLTHIPNRGVHVAKP”, for which the “soluble fraction (log2)” value is -0.819.

On to “HMLDPKVFVGKAGINEGIAKLLLQAFDKADLVKVRFTAERDVMETQMQELARLTGSEVIGNVGRTATF”, for which the “soluble fraction (log2)” value was -0.00291.

Regarding “HMEMTDKEEELMRIFWNHGPMFVREIVELYPEPRPHFNTLSTFVRNLEQKGFVSHEAVGGSFRYYAV”, the “soluble fraction (log2)” value was -1.26.

“HMQISGIHLYERRITKDDEWAERKLSEISLAGSLVILILRNEHVVIPNGETVLKENDLLYISD”: the “soluble fraction (log2)” value was -2.93.

Take “HMLSVRQRMGELLERLADGQFHRFESLFTVEEGKLGVVVTFLGLLTLAKEQLLDIVQEGPTAPIYVKSLA”: the “soluble fraction (log2)” value was -0.437.

“HMVSKEELANSIYENKTADELGNIVLRKGKYSGEMLRTIYVKDIGYLEWHSKQSYEYSNAVKWYLKKLE”: the “soluble fraction (log2)” value was -1.21.

As for “HMFDLSQRQEQIIEIVRKHGPITGEKIADLLYVTRAALRPDLAILTMSGYLEAKPRVGYTYK”, the “soluble fraction (log2)” value was -1.2.

Consider “HMGSEYPSNPLASRWAKGVRLYHDEWGYGVIQAARGSEPDDYVITVRFESGAEKSFLPKFQAHSLMIVKD”, for which the “soluble fraction (log2)” value was -0.161.

Regarding “HMAADWTAIKLAYVNGGMSMRELAQRFHVGAAGLMKRAAKEGWEAERQQNSAKVSNAAQMLIN”, the “soluble fraction (log2)” value turned out to be 0.33.

In the case of “HMEKLNYSISNEEQGQRIDKYLSLMIEGKSRSFIQGLIDDKKVMANGKVIKSNYKLKNNDEITVEMPDPI”, the “soluble fraction (log2)” value is -0.155.

“HMDEKLAHKLVSDFRQAAASLERFPFRNPVLRSEVFTVEKYRKLVFDKYHILLYQVKDQVVYVEYVIDGRQ”: the “soluble fraction (log2)” value was -0.75.

Regarding “HMDTFSVAIGTKTPDGSSVGEVKTISRDELLLLEDEVAEDPTKEIIFTGGTKDSAQAALDGWIDYNTNLAS”, the “soluble fraction (log2)” value was 0.00318.

For the sequence “HMGAIVTVPDLAGRPQPGAEAELRRSGLVPKVRTSYSLTGTRGTVISQTPPAGSRVREGAEVEVVVSRGLN”, the “soluble fraction (log2)” value was 0.0922.

Regarding “HMKTGNIVMVNLGWKGKYYSIKMFFPQVSKPSRKDVQDQIEKIYPGGKLYTFVVSNYEPGEPMLHA”, the “soluble fraction (log2)” value was -1.06.

“HMRMSLDEAKAVVLPIGEYKGRNMGEVLAIKPELIDFYASQKFNSSKYPYLKEAAQVILENQ”: the “soluble fraction (log2)” value was -0.0538.

With “HMQSVKTQPLRDWLLAHFDKPYPDDEDKVRLAEASGMTRAQVGNWFINARVRTWRPMVLDLGEEIERESV”, the “soluble fraction (log2)” value was -0.649.

Consider “HMNPHGVAIIDVRKGKASTLRSLATSVRSLGEWDQLKIPIFNLESLTSLVLWHGLDAIVKEPESLQSNLIL”, for which the “soluble fraction (log2)” value was -0.62.

With “HMKYGPSTVATLKVARLGEMGAFLDAETGDTSDDILLHKTQQTAPVKVGDEVEVFLYLDPKRRLTASMRV”, the “soluble fraction (log2)” value was -0.107.

With “HMPAVTEQTRANLRTAFWSLYREKPTSKITVREITDRAGYNRATFYLYYRDVYDLFEQIEQEIL”, the “soluble fraction (log2)” value was -2.36.

Take “HMLQIADEYLDRLQALFEDVRDNHFAIGDLLVELVDMHDSRRVDVINYIAGRLAISPTTLYDYENTARR”: the “soluble fraction (log2)” value was -0.792.

For “HMRSFRIGGLVEQGSIARDGQSLTVRFAVTDLAHKIPVTYTGLLPDLFKEGKGVVAEGKLGPDGVFHASQV”, the “soluble fraction (log2)” value is -0.0153.

For “HMDTETLIDKYQLNASEAAVLRFMDKNRDSLRDLGIRDVARASYVSTATIVNMAKKIGYSGYSELVFAYGS”, the “soluble fraction (log2)” value is -1.09.

Regarding “HMANPMFAEIKKVQKQLNEMGYQAGPADGLWGNKTENAVKLLLSDNNLKWDGTFDQNEIKIIEEIFLSND”, the “soluble fraction (log2)” value is -0.256.

Take “HMDDADPYEILGVERDAEDAEIKRAYHDLIRENHPDRLMAEGLPQEMIDVANEKVAFINDAYDRIEKLRGM”: the “soluble fraction (log2)” value is -0.241.

As for “HMFTEEQMDWLRLIKDHIVASLSILPEDLELTPFDRKGGLLGFYDAFGDEYEKILQEMNEELVA”, the “soluble fraction (log2)” value was -0.588.

For the sequence “HMGELDFYEEMRDDYLTGKIWNVGEIVEAKGMIGEIVRKGTNYISFVTDDNKVHKAWLHEIKL”, the “soluble fraction (log2)” value was -0.634.

On to “HMVAPNSEATTKLIIEKTKYANESPAILMGFKATATMLMAKHVVLPTSKYAYFNEGRALLEKAIK”, for which the “soluble fraction (log2)” value was -0.0203.

As to “HMTSPNPLIRSTTPGLETNKKGGIIVDENEMSTRENVFAGGDAVTGAATVILAMGAGKKAAAAIDAKLQN”, the “soluble fraction (log2)” value turned out to be 0.12.

On to “HMTDLNQIGERIKGLRDALGYSPEKMASILEQKVDDYLAYEEGTKDISLSVLQRIEKEFDIDLSTLLFGT”, for which the “soluble fraction (log2)” value was -0.148.

With “HMPLLELPDDFYPAWKPKTIYVQGQRIMLDGVAFEAKWWTQGDNPASGQADPGSSPWRTLTQEEIAKLLE”, the “soluble fraction (log2)” value is -0.901.

Consider “HMENVMLRNFAIQATEAGVIKLLEDQRTFVWGSNNKKFMTVPFDEHPYSAMAAFFKTDEGLEIYKSIEKKF”, for which the “soluble fraction (log2)” value was -1.71.

“HMDVQNLTKKNQEFINIVTHQLLQSGKSDEDIQTILAKTLPEIIEKQKQGIPARSFLGAPTAWAAQFI”: the “soluble fraction (log2)” value is 0.133.

In the case of “HMAKSKYETHVLPNLDKIIKWAKAGATAKEIAANLHIAYSTFRKYLDEGQEGDERYAALSAAFAQA”, the “soluble fraction (log2)” value is 0.321.

Take “HMELTKAELEVMQILWKLKKAFVGDILDRMVEPKPAYNTVSTVVRLLEKKGVVGHESFGKSHRYYPL”: the “soluble fraction (log2)” value was -3.22.

For “HMIEESTVPDLKGKSQEDAIKLLEDANLKYQIVEEESKKIEAGYVISQETDANKKVNAGDTVIIHVST”, the “soluble fraction (log2)” value was determined as 0.295.

As to “HMTGIVVVDVVGQVGRPGLVSLPAGSRVADAITAAGGATPEADVSLLNQARLVIDGEQIRVPRPGEVIAA”, the “soluble fraction (log2)” value is -0.0367.

As to “HMKPTVKGHFTRKESNVGGYADVRGWGVAGTPSMMANQSKDTRRFSTLIVPGRSVNVHPSPTKEAIIWWQS”, the “soluble fraction (log2)” value was -0.0091.

As to “HMDPYLSGLLQKLAETDKKISFTRLRSEDLDGESREAIYEFIEKYSGRFGVRWLLNEFGLSPSVYYNYLHS”, the “soluble fraction (log2)” value is -0.741.

Take “HMRNKTVKEVLDYIEKNSEFIFFYYSKAIDTKRIVSLSVKDQPITVILDQLFKNTDVLYEIKDRQISLKRE”: the “soluble fraction (log2)” value turned out to be 0.277.

Take “HMEKIIGQIQINQRGNGYVIVPNVKDDIFVKRENLNSARQGDRVAVQLLSRPNQKPEGLVQEVLERGQ”: the “soluble fraction (log2)” value was 0.461.

For “HMFFDKIIVDFLADGSRIDKYISTLYPDISRTHIQRLIAEQFILVNDSVVKSNYKLSTNDVVLIHIPEA”, the “soluble fraction (log2)” value is -3.33.

On to “HMSDEIQLQFIQISIFKDHPWADMQIKDMNIIPDLLIVMILRDGERIIPNGNTRIMPGDMVIITAMSANT”, for which the “soluble fraction (log2)” value is -2.89.

Consider “HMASMEDILAEAKTKFQEGDLFKSVNEGIQGTHKLTLPLRIKESRIVDASGAAVYREGIWATVDK”, for which the “soluble fraction (log2)” value was determined as 0.108.

For HMQEDKVRKLTEMGFAEDQAREALRKHDWDETMALNSL, the “soluble fraction (log2)” value came out at 0.199.

Take “HMTAKQDLDSIYRHLVATRKSIAENPKMVSSIDDPQALIKMLDYAIQYFYTDKRDEALAVLEKNEEQLNFR”: the “soluble fraction (log2)” value is -0.117.

As to “HMTAPELSVGDYLEYRGKEYKVESLDMDGFITLTDTALEDAPRLISRVTFLTDEFIRSGEYMVIT”, the “soluble fraction (log2)” value was -0.169.

With “HMGTYYTEIIAQLKKEIANGTWKLGERLPGELALAKQFNVSRSSIREALKALAYAGIVESKPGRGTFLLHV”, the “soluble fraction (log2)” value is -0.875.

Take “HMSSESIKTDKNVGVGSTLEELEKAYGSDYTLSGKMYRYYQDDNSKYMYFFILNDVVQYYGYGIDV”: the “soluble fraction (log2)” value was -1.53.

As to “HMNVQGFVFDLAEPLDKVPSIEGFPLKLEDPLTLVAAVNKDRSINALFAELSKLNIKIKSMRNE”, the “soluble fraction (log2)” value stood at 0.15.

“HMIERLVVSPAAGVFTKKMSVENNTRIDVGHVLGHVGETEVRSPFAGILQNYIAVDGERLTAHQPIAWLRS”: the “soluble fraction (log2)” value came out at 0.00717.

Take “HMRRFEFSDGSSNKFWQITRDGTSLTVTFGKIGTAGQTQLKELATEAAAIAEHDKLVKEKTKKGYAEVG”: the “soluble fraction (log2)” value is -0.206.

As for “HMSTNYVQVLRAALNGVSGRKLAQQYRVSRDTVAILLRQAKIQGWQRAEDLENITEEDLVALLSG”, the “soluble fraction (log2)” value is -0.373.

For “HMSGIESIVIPLKGLDFDMISSTLTPQLKQAIKYDKQSDSIILVGTNAKVNIIAKQVNAMVEVYKLKT”, the “soluble fraction (log2)” value was -0.444.

“HMYSYSGSVINTYKVPVSVVLKDANGSAIASWDLPVDQSLGISAKDIATSSGTIEITGDGVNETKTVTFTK”: the “soluble fraction (log2)” value was -0.0188.

Turning to “HMVVQTELVRISITSLSGEDIRRLVQIKVVGATIEPFEGGGFLITGTAEQIAKAKDFLNSMSTEF”, the “soluble fraction (log2)” value is -0.855.

Take “HMNADAIVGRTGVVTEAIAADGFGRVQIDGDSWKAKASGNNGIDVGAKVRVLRIDSIILTVEK”: the “soluble fraction (log2)” value is 0.0422.

On to “HMRNDIFDQLTEREMQILQEVAKGYRNKQIADHLFISESTVKVHMKSLLKKLQVPSRTAATVLYLERYG”, for which the “soluble fraction (log2)” value is -1.66.

Consider “HMLPYKGTVAVSLAVLHKAVGVGTADMLKAVGTLRQGTEVTVTGRNGPFAQLKNGLWMKESFLE”, for which the “soluble fraction (log2)” value was -1.04.
